Laboratory results from patent US20190023770A1 (Genentech, published 2019).

Columns and labels:
[1] = molecular target: recombinant hemagglutinin H3 from influenza A virus A/Hong Kong/8/1968 (influenza A virus A/Hong Kong/8/1968, UniProt Q91MA7 17-530)
[2] = molecular target: recombinant hemagglutinin H1 from influenza A virus A/NWS/1933 (influenza A virus A/NWS/1933 (printed …, UniProt P03454 18-528))

Row | Binder | EC50 [1] [nM] | EC50 [2] [nM]
1 | monoclonal antibody 36.89 (antibody, V domains shown) VH: QVQLVQSGAELKRPGASVKVSCKTSGYSFNNYGINWVRQAPGQGLEWMGWISAYTGNTHYAKNFEGRVTLTTDTSTSTAYMEVRSLRSDDSAVYFCARAMIQGVVTLYLRPGDYWGQGTLVTVSS VL: DIVMTQSPSTLSASVGDRVTITCRASQSIGNWLAWYQQKPGKAPKLLIYKVSTLESGVPSRFSGSGSGTEFTLTINSLQPDDFATYYCQRYTSNSQGFTFGQGTKLEIK | 1.32 | > 200
2 | monoclonal antibody mAb9 01F3 (antibody, V domains shown) VH: QVQLVQSGAEVKQPGASVKVSCKASGYTFNAYYIHWVRQAPGQGLEWMGWINPNFGGTHYARKFQGRVTMTRDASINTAYMELDRLISDDTAVYYCVRWRAAAVIMDQFYKMDVWGQGTLVTVSS VL: SSELTQPPSASGTPGQRVTISCSGSTSNIGYNPVSWYQQVPGTAPKLLIYSNTERPSGVPDRFSGSKSGTSASLAISGLQSEDEADYYCAAWDDTLNGPVFGGGTKVTVL | 8.42 | > 200
3 | monoclonal antibody mAb23 06C2 (antibody, V domains shown) VH: QVQLQESGPGLVKPSETLSLTCTVSGGLIGTGSYYWGWIRQTPGKGMEWIGSISYSGSTYYHPSLKSRVTISDDTSKNQLFLKLRSVTAADTAQYYCARYNWGIRYFDFWGRGTLVTVSS VL: DIQLTQSPLSPPVTLGQPASISCRSSQSLLYTDGFTYLSWYHQRPGQSPRRLIYKISNRDSGVPDRFSGSGSGTDFTLKISRVEAEDVGVYYCMQATHWPLTFGEGTKVEIK | 1.84 | > 200
